System: peptide library, one residue held at a place counted from the S/T acceptor
Assay: relative phosphorylation of the sub-library (ratio to the mean residue at this position); higher = residue favoured
Settings: human
How it was run: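 Human or orthologue kinase constructs, purified and recombinant, were incubated under kinase-specific conditions in 384-well plates with biotinylated degenerate peptide sub-libraries. Each sub-library fixed one residue at one position around a central Ser/Thr. Incubations lasted 90 min with peptides at 50 μM and 50 μM ATP spiked with γ-32P-ATP, after which spots on streptavidin membranes were phosphorimaged and quantified by densitometry. Relative sub-library phosphorylation is a ratio to the mean residue at that position.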

Sequence of RIPK4, construct: aa1-300 (P57078 1-300, looked up): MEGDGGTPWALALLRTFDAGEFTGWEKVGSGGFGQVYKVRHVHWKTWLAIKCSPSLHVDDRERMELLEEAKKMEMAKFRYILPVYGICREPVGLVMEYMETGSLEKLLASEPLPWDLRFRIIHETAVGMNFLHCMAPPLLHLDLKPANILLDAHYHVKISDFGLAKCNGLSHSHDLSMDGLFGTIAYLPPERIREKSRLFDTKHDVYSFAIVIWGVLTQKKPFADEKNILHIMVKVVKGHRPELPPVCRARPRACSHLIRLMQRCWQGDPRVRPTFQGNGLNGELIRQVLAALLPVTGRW
Sequence of RIPK3, construct: aa1-313 (Q9Y572 1-313, looked up): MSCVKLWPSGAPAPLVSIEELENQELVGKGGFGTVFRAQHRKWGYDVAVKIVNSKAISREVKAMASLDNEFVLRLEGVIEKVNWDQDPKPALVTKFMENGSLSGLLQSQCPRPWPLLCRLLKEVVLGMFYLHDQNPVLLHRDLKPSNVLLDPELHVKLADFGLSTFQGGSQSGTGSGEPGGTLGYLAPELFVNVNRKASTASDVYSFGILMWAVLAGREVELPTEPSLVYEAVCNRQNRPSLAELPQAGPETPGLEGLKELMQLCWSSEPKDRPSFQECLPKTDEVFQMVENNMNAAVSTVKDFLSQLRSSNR

RIPK3, construct: aa1-313 (from UniProt Q9Y572)
relative phosphorylation
Settings	at +1	at +2	at +3	at +4	at -1	at -2	at -3	at -4	at -5
A fixed	0.854	0.673	0.422	1.03	0.762	0.87	1.02	1.03	1.16
D fixed	0.247	0.425	0.266	0.816	0.678	0.699	0.711	0.73	0.818
E fixed	0.459	0.727	0.224	0.625	0.421	0.515	0.692	0.766	0.668
F fixed	2.07	0.902	3	1.07	0.662	0.66	0.785	1.1	1.04
G fixed	0.895	0.746	0.646	1.21	0.466	1.03	1.65	1.17	1.13
H fixed	0.695	1.3	0.615	0.944	1.28	1.29	1.19	1.05	1.22
I fixed	1.6	1.43	1.67	0.998	1.08	0.747	0.832	0.949	1.04
K fixed	1.02	1.36	0.424	1.24	2.04	0.953	1.37	1.36	1.43
L fixed	0.935	1.61	2.54	0.991	1.27	1.2	0.922	0.873	0.912
M fixed	1.62	1.05	1.58	0.989	1.1	0.922	0.977	1.13	0.958
N fixed	0.493	0.977	0.474	0.915	1.21	1.15	0.946	1.03	0.848
P fixed	0.148	0.548	0.253	1.22	0.783	1.73	0.992	0.862	0.894
Q fixed	1.32	1.04	0.399	0.938	0.888	0.847	0.979	0.818	0.826
R fixed	1.76	1.31	0.669	1.15	1.73	2.22	1.48	1.23	1.12
V fixed	1.26	1.14	0.661	0.863	1.11	0.697	0.732	0.969	0.991
W fixed	0.81	0.603	1.68	1.11	0.623	0.727	0.944	0.999	0.986
Y fixed	0.822	1.16	1.48	0.898	0.893	0.736	0.778	0.937	0.966
pThr fixed	0.844	1.28	0.557	1.02	1.1	1.32	1.22	1.27	1.06
pTyr fixed	0.422	0.937	0.518	0.722	0.785	0.648	0.892	0.859	0.733

RIPK4, construct: aa1-300 (from UniProt P57078)
relative phosphorylation
Settings	at +1	at +2	at +3	at +4	at -1	at -2	at -3	at -4	at -5
A fixed	0.786	0.77	0.723	0.883	0.722	0.944	1.01	0.988	1.04
D fixed	0.444	0.547	0.572	0.75	1.76	1.53	1.02	1.45	1.43
E fixed	0.458	0.509	0.485	0.618	0.809	1.36	0.853	0.96	0.926
F fixed	1.86	1.04	1.37	1.16	0.6	0.863	0.994	0.822	1.04
G fixed	1.04	0.738	0.909	0.918	0.585	1.33	0.969	1.07	0.944
H fixed	0.776	1.18	0.859	1.07	1.48	1.37	1.14	1.04	1.07
I fixed	1.77	0.843	1.78	1.05	0.841	0.635	0.848	0.861	0.876
K fixed	0.691	1.66	0.792	1.25	1.63	0.64	0.919	0.9	1.09
L fixed	1.25	0.978	1.5	1.01	0.858	0.628	0.941	0.819	0.926
M fixed	1.71	1.11	1.04	0.831	0.815	0.789	0.996	0.91	0.909
N fixed	0.665	0.943	0.725	0.726	1.52	1.24	0.837	1.26	0.941
P fixed	0.376	0.62	0.706	1.32	0.461	0.502	1.11	0.844	0.922
Q fixed	1.19	0.924	0.779	0.802	1.02	0.898	0.976	0.888	0.856
R fixed	1.11	2.28	0.932	1.29	1.33	0.986	1.43	0.936	1.03
V fixed	1.26	0.815	1.09	0.798	1.01	0.618	0.723	0.874	0.866
W fixed	0.781	0.988	1.45	1.41	0.59	1.06	1.24	1.39	1.24
Y fixed	0.836	1.07	1.3	1.13	0.963	1.6	0.998	0.977	0.898
pThr fixed	0.839	0.707	0.778	0.887	1.03	1.04	1.07	1.17	1.23
pTyr fixed	0.524	0.726	0.725	0.802	0.897	0.817	0.967	0.967	1.09

RPS6KA4, construct: Full length (from UniProt O75676)
relative phosphorylation
Settings	at +1	at +2	at +3	at +4	at -1	at -2	at -3	at -4	at -5
A fixed	0.665	0.804	0.781	0.843	0.745	0.911	0.769	1.08	1.06
D fixed	0.621	1.61	1.12	1.43	0.996	0.411	0.319	0.715	0.699
E fixed	0.77	1.07	1.12	1.33	0.567	0.413	0.329	0.853	0.661
F fixed	1.3	0.921	1.08	0.864	0.749	0.749	0.472	0.868	1.01
G fixed	0.547	0.65	1.03	1.1	1.11	0.775	0.465	1.15	1.06
H fixed	1.21	1.7	1.3	1.35	1.04	0.924	0.817	1.17	1.2
I fixed	1.26	0.85	0.811	0.767	0.44	0.354	0.258	0.665	0.858
K fixed	0.634	0.72	0.71	0.934	1.41	1.2	0.915	1.32	1.25
L fixed	1	0.698	0.998	0.782	0.791	0.518	0.285	0.679	1
M fixed	1.27	0.909	1.04	0.867	1.04	0.629	0.373	0.84	0.857
N fixed	0.937	1.44	0.935	1.23	1.57	0.861	0.473	1.01	0.871
P fixed	0.345	0.5	0.942	1.09	1.3	0.429	0.64	1.01	0.887
Q fixed	1.1	0.873	0.949	1.25	1.19	0.885	0.642	1.09	0.831
R fixed	0.771	0.869	0.677	0.74	1.5	6.18	8.7	1.81	1.96
V fixed	1.24	0.807	0.726	0.639	0.51	0.354	0.247	0.583	0.773
W fixed	1.89	1.39	1.62	1.07	0.898	0.748	0.738	1.13	1.19
Y fixed	1.44	1.18	1.17	0.72	1.14	0.66	0.555	1.04	0.832
pThr fixed	1.11	1.18	1.15	1.83	0.415	0.419	0.515	0.698	0.644
pTyr fixed	1.57	1.17	1.47	1.39	1.27	0.502	0.491	0.81	0.804

From the supplement of paper PMC9876800
